Laboratory results published in PMC9304148.
pKd: −log10 of the molar value. Each block holds one substance with its values, some of them ahead of it.

Key:
[1] = target: CarHCfe (Cystobacter ferrugineus CarH), purified (Cystobacter ferrugineus); test: SEC; analytical size exclusion, Superdex200 HR 10/30; 100 ul of 50-100 uM protein after 15-min incubation with five-fold molar excess of AdoCbl, in the dark; dimer by apparent Mr
[2] = target: CarHCfe (Cystobacter ferrugineus CarH), purified (Cystobacter ferrugineus); test: SEC; analytical size exclusion, Superdex200 HR 10/30; 100 ul of 50-100 uM pure apoprotein alone, in the dark; dimer by apparent Mr
[3] = target: CarHCfu (Cystobacter fuscus CarH), purified (Cystobacter fuscus); test: SEC; analytical size exclusion, Superdex200 HR 10/30; 100 ul of 50-100 uM protein after 15-min incubation with five-fold molar excess of AdoCbl, in the dark; dimer by apparent Mr
[4] = target: CarHCfu (Cystobacter fuscus CarH), purified (Cystobacter fuscus); test: SEC; analytical size exclusion, Superdex200 HR 10/30; 100 ul of 50-100 uM pure apoprotein alone, in the dark; dimer by apparent Mr
[5] = tested on: CarHCfu (Cystobacter fuscus DSM 2262 (strain as in the genome table)); test: EMSA; details: EMSA: 0.1 M KCl, 10 mM MgCl2, 25 mM Tris-HCl pH 8, 1 mM DTT, 10% glycerol, 200 ng/ul BSA, 1 ug salmon sperm DNA, 1.2 nM probe, AdoCbl 5-fold over protein, 37 °C

stoichiometry N [1]: 2
stoichiometry N [2]: 2
Substance: CarHCfe (Cystobacter ferrugineus CarH), purified (natural protein)

stoichiometry N [3]: 2
stoichiometry N [4]: 2
Substance: CarHCfu (Cystobacter fuscus CarH), purified (natural protein)

Substance: Pcrt Cfu 170 bp
pKd [5]: 7.46
